For series [1], the target named is T1, Cascade- (crRNA-free Cse1-Cse2-Cas7-Cas5-Cas6e) (Escherichia coli (K12; expressed in …, UniProt Q46901;P76632;Q46899;Q46898;Q46897 1-502;1-160;1-363;1-224;1-199).
T1 sequence 1: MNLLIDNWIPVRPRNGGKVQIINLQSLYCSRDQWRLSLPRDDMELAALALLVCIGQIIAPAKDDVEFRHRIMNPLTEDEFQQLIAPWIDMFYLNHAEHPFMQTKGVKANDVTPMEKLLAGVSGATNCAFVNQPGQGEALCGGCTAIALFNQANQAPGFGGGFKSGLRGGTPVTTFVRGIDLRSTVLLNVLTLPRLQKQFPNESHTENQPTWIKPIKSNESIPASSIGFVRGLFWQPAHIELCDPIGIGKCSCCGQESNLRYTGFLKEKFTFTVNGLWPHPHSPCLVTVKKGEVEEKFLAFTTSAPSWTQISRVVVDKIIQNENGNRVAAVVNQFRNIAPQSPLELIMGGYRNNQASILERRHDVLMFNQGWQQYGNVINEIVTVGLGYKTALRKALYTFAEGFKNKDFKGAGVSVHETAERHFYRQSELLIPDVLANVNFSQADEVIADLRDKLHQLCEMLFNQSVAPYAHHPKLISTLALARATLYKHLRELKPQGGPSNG
T1 sequence 2: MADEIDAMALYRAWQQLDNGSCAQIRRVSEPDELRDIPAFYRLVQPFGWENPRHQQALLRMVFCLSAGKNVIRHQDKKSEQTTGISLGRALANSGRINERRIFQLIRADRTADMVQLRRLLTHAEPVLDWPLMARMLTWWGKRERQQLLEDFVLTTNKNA
T1 sequence 3: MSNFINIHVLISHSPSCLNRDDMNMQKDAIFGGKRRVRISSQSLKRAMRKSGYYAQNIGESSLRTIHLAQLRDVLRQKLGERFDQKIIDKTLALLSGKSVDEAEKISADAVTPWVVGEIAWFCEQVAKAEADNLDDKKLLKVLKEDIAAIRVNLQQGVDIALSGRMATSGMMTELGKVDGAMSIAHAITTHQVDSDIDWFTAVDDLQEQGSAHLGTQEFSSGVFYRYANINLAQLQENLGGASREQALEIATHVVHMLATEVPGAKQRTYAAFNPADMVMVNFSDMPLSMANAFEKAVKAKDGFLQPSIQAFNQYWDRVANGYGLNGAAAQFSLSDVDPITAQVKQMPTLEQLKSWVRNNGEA
T1 sequence 4: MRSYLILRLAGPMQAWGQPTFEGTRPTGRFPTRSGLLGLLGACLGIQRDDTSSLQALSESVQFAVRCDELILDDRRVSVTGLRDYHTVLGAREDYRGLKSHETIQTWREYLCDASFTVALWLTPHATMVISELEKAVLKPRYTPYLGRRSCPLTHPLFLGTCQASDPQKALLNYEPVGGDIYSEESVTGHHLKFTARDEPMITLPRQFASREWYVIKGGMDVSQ
T1 sequence 5: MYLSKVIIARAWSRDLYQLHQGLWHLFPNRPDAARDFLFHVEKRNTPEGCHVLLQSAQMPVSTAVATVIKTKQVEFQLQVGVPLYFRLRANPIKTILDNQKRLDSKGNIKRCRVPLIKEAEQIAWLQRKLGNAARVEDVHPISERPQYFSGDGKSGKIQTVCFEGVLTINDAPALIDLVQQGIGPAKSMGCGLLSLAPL
In words: EMSA; loaded with crRNA MS2; EMSA: 20 mM Tris-HCl pH 8, 20 mM NaCl, 10 nM 32P probe, 30 min at 30 or 37 C, 6% native PAGE; loading 10 min at 30 C with crRNA (0.5 uM in Fig 3). Kd values are printed only in Fig 5A (not in the material). The following applies: protein: recombinant; tags: N-terminal 6His on Cse1 (CasA); copies: 1;2;6;1;1; label: DNA 5'-32P; guide + blunt duplex.

Series [2] has as its target T2, Cascade+ (Cascade co-expressed with g8 crRNA) (Escherichia coli (K12; expressed in …, UniProt Q46901;P76632;Q46899;Q46898;Q46897 1-502;1-160;1-363;1-224;1-199).
T2 sequence 1: T1 sequence 1
T2 sequence 2: T1 sequence 2
T2 sequence 3: T1 sequence 3
T2 sequence 4: T1 sequence 4
T2 sequence 5: T1 sequence 5
Nature of the series: EMSA; co-expressed g8 crRNA; EMSA: 20 mM Tris-HCl pH 8, 20 mM NaCl, 10 nM 32P probe, 30 min at 30 or 37 C, 6% native PAGE; loading 10 min at 30 C with crRNA (0.5 uM in Fig 3). Kd values are printed only in Fig 5A (not in the material). The following applies: protein: recombinant; tags: N-terminal 6His on Cse1 (CasA); copies: 1;2;6;1;1; label: 5'-32P; 3' handle hairpin. In general terms: Mobility shift assays separate free from complexed probe on a gel.

The target of series [3] is T1, Cascade- (crRNA-free …). In words: EMSA; EMSA: 20 mM Tris-HCl pH 8, 20 mM NaCl, 10 nM 32P probe, 30 min at 30 or 37 C, 6% native PAGE; loading 10 min at 30 C with crRNA (0.5 uM in Fig 3). Kd values are printed only in Fig 5A (not in the material). The conditions noted are these: protein: recombinant; tags: N-terminal 6His on Cse1 (CasA); copies: 1;2;6;1;1; label: 5'-32P; 3' handle hairpin.

Series [4] deals with T2, Cascade+ (Cascade co-expressed with g8 …). In words: EMSA; co-expressed crRNA; EMSA: 20 mM Tris-HCl pH 8, 20 mM NaCl, 10 nM 32P probe, 30 min at 30 or 37 C, 6% native PAGE; loading 10 min at 30 C with crRNA (0.5 uM in Fig 3). Kd values are printed only in Fig 5A (not in the material). The following applies: protein: recombinant; tags: N-terminal 6His on Cse1 (CasA); copies: 1;2;6;1;1; label: DNA 5'-32P; guide + blunt duplex.

Series [5] deals with T1, Cascade- (crRNA-free …). In words: EMSA; loaded with crRNA1; EMSA: 20 mM Tris-HCl pH 8, 20 mM NaCl, 10 nM 32P probe, 30 min at 30 or 37 C, 6% native PAGE; loading 10 min at 30 C with crRNA (0.5 uM in Fig 3). Kd values are printed only in Fig 5A (not in the material). The conditions noted are these: protein: recombinant; tags: N-terminal 6His on Cse1 (CasA); copies: 1;2;6;1;1; label: DNA 5'-32P; guide + blunt duplex.

B1: crRNA MS2 + MS2 dsDNA (mixed)
RNA: AUAAACCGGCACCGACCCCUUUCUGGAGGUACAUAUUCAUGAGUUCCCCGCGCCAGCGGGG
DNA 1: TGAGCCGGCGTCTGATAAAGGCACCGACCCCTTTCTGGAGGTACATATTCATATCAGGCTCCTTACAGGCAG
DNA 2: CTGCCTGTAAGGAGCCTGATATGAATATGTACCTCCAGAAAGGGGTCGGTGCCTTTATCAGACGCCGGCTCA
As to B1, the binding result with Cascade- (crRNA-free …) [1] is “binds”.

B2: crRNA1 (-8/+21) (structured_RNA)
RNA: AUAAACCGCUGUCUUUCGCUGCUGAGGGUGACGAUCCGCCGAGUUCCCCGCGCCAGCGGGG
modifications: 2',3'-cyclic phosphate at 3' end
For B2, the binding result (in series [2]; in the series with Cascade- (crRNA-free …) [3]) was “binds” each time.

B3: g8 crRNA1 + g8 dsDNA (mixed)
RNA: B2 RNA
DNA 1: CAGGGAGTTAAAGGCCGCTTTTGCGGGATCGTCACCCTCAGCAGCGAAAGACAGCATCGGAACGAGGGTAGCAACGGCT
DNA 2: AGCCGTTGCTACCCTCGTTCCGATGCTGTCTTTCGCTGCTGAGGGTGACGATCCCGCAAAAGCGGCCTTTAACTCCCTG
modifications: 2',3'-cyclic phosphate on crRNA
Consider B3, for which the binding result (in series [4]; with Cascade- (crRNA-free …) [5]) was “binds” throughout.
